The target in this test is T1, full length PD-L1 in the form of paramagnetic proteoliposomes (PMPL) (human, UniProt Q9NZQ7 19-290).
T1 construct: whole, on cells; Full length protein in proteoliposomes, not on cells; the form 'whole' is meant; also called proteoliposome-coupled-PD-L1
In words: phage display panning on PD-L1 proteoliposomes.

T1 sequence (Q9NZQ7 19-290): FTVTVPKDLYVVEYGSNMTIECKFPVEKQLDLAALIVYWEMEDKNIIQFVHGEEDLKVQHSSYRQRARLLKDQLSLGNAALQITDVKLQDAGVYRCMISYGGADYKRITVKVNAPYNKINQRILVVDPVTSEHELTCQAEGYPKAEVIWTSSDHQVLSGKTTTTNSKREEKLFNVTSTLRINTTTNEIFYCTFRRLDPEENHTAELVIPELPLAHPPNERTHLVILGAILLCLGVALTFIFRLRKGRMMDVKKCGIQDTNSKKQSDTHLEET

B1: Ab-46 phage-scFv (scFv, V domains shown, not shown: large carriers; small tags and cut ends)
VH: EVQLVESGAEVKKPGSSVKVSCKVSGGTFGTYALNWVRQAPGQGLEWMGRIVPLIGLVNYAHNFEGRISITADKSTGTAYMELSNLRSDDTAVYYCAREVYGGNSDYWGQGTLVTVSS
VL: NFMLTQPHSVSESPGKTVTISCTRSSGNIGTNYVQWYQQRPGSAPVALIYEDYRRPSGVPDRFSGSIDSSSNSASLIISGLKPEDEADYYCQSYHSSGWEFGGGTKLTVL
notes: also called Ab-46 scFv-phage
Take B1: the binding result was “binds”.

B2: Ab-56 phage-scFv (scFv, V domains shown, not shown: large carriers; small tags and cut ends)
VH: EVQLVESGAEVMNPGSSVRVSCRGSGGDFSTYAFSWVRQAPGQGLEWMGRIIPILGIANYAQKFQGRVTITADKSTSTAYMELSSLRSDDTAVYYCARDGYGSDPVLWGQGTLVTVSS
VL: NFMLTQPHSVSGSPGKTVTLPCTRSSGSIASHYVQWYQQRPGSAPTTVIYEDNKRPSGVPDRFSGSIDSSSNSASLSISGLKTEDEADYYCQSYDSSNRWVFGGGTKLTVL
notes: also called Ab-56 scFv-phage
For the molecule B2, the binding result was “binds”.

These data come from patent US20200385482A1 (Dana-Farber, published 2020).
